These are literature values, as cited in publication PMC6661118.

For series [1], the target named is MDM2 (Homo sapiens) (UniProt Q00987).
For series [2] the target is unchanged. This is another data set of the same source.

Where two headings read alike, the source gives them in different places.

Sequence of MDM2 (Homo sapiens) (Q00987 whole entry): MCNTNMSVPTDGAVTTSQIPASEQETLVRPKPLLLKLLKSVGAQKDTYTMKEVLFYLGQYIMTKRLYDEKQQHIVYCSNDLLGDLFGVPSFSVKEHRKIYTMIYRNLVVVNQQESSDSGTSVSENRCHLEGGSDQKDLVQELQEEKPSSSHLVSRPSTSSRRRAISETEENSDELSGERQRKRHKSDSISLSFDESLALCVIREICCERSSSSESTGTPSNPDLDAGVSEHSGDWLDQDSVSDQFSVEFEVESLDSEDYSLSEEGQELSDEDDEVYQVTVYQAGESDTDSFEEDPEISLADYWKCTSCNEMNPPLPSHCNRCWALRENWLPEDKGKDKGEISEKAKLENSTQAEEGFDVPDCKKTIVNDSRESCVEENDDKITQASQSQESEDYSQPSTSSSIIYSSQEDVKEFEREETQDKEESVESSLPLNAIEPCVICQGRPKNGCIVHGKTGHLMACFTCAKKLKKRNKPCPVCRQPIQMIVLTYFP

As a reminder, the Kd is a measure of binding affinity in units of concentration. With p53-SAH-8 (from UniProt P04637), the Kd with MDM2 (Homo sapiens) [1] is 55 nM.

On to p53 (from UniProt P04637), for which the Kd in the series with MDM2 (Homo sapiens) [2] is 410 nM.
